Results reported in PMC3845908 (Journal of the American Chemical Society, 2012).
Residue numbers refer to the chain shown, from its start. In names and notes the source's numbering stands. Like-named read-outs stand apart in the source and are kept apart here.

B1: Streptomyces lividans KcsA R64C, MTSL spin-labelled (natural protein, UniProt P0A334 1-160, looked up)
chain: MPPMLSGLLARLVKLLLGRHGSALHWRAAGAATVLLVIVLLAGSYLAVLAERGAPGAQLITYPCALWWSVETATTVGYGDLYPVTLWGRLVAVVVMVAGITSFGLVTAALATWFVGREQERRGHFVRHSEKAAEEAYTRTTRALHERFDRLERMLDDNRR
modifications: MTSL spin label on the cysteine at 64
B2: Streptomyces lividans KcsA F114C full length, MTSL spin-labelled (natural protein, UniProt P0A334 1-160, looked up)
chain: B1 chain with C64R, F114C
modifications: MTSL spin label on the cysteine at 114

Experiments:
[1] = target: the molecule itself; assay: pulsed double electron-electron resonance
[2] = target: the molecule itself; assay: pulsed double electron-electron resonance; remark: listed apart in the source

Row | Protein | binding result [1] | binding result [2]
1 | B1 | binds | 
2 | B2 |  | binds
